Test results: patent US20070031511A1, “Method of treatment” (priority 2003, published 2007)

Test: Quenching of peptide tryptophan fluorescence by ferric ions (stoichiometry, apparent Kd)
Type: binding
Conditions: 10 mM sodium acetate pH 4.0, 100 mM NaCl, 0.005% Tween 20; mean ± S.E.; read-out: Kd (μM), apparent dissociation constant for ferric ions
Procedure: The tryptophan fluorescence of peptide solutions was measured in 3 mL quartz cuvettes thermostated at […], with a Spex Fluorolog-2 spectrofluorimeter (Spex Industries, Edison, N.J.), with the excitation and emission wavelengths set at 290 and 345 nm, respectively. The quenching of tryptophan fluorescence induced by the binding of metal ions was used to calculate the fraction of binding sites occupied, fa: fa=(yf−y)/(yf−yb) where y is the fluorescence signal at a given concentration of metal ions and yb and yf are the signals when the binding sites are fully occupied and unoccupied, respectively (Winzor et al, 1995). […]
The tryptophan fluorescence of progastrin6-80, glycine-extended gastrin17 and related peptides was measured in the presence of increasing concentrations of ferric ions in 10 mM sodium acetate, pH 4.0, 100 mM NaCl, 0.005% Tween 20. […]
The tryptophan fluorescence of amidated gastrin17 and related peptides was measured in the presence of increasing concentrations of ferric ions at pH 4.0 (8). […]

B1: Progastrin: recombinant human progastrin6-80 (protein, listed as Homo sapiens)
chain: SQQPDAPLGTGANRDLELPWLEQQGPASHHRRQLGPQGPPHLVADPSKKQGPWLEEEEEAYGWMDFGRRSAEDEN
Kd: 2.15 ± 0.14 µM
